The text below walks through data of patent US20200222503A1 (published 2020).

B1: murine PD-1-Fc-OX40L chimeric protein (Fc fusion, UniProt Q02242 25-169, looked up)
chain: LEVPNGPWRSLTFYPAWLTVSEGANATFTCSLSNWSEDLMLNWNRLSPSNQTEKQAAFCNGLSQPVQDARFQIIQLPNRHDFHMNILDTRRNDSGIYLCGAISLHPKAKIEESPGAELVVTERILETSTRYPSPSPKPEGRFQGMSSSPAKDPPIQRLRGAVTRCEDGQLFISSYKNEYQTMEVQNNSVVIKCDGLYIIYLKGSFFQEVKIDLHFREDHNPISIPMLNDGRRIVFTVVASLAFKDKVYLTVNAPDTLCEHLQINDGELIVVQLTPGYCAPEGSYHSTVNQVPL
notes: extracellular domain; also called mPD-1-Fc-OX40L; not shown: Fc linker of the murine construct is not specified
B2: PD-1_IgG4_OX40L (1) (Fc fusion)
chain: LDSPDRPWNPPTFSPALLVVTEGDNATFTCSFSNTSESFVLNWYRMSPSNQTDKLAAFPEDRSQPGQDCRFRVTQLPNGRDFHMSVVRARRNDSGTYLCGAISLAPKAQIKESLRAELRVTERRAEVPTAHPSPSPRPAGQFQSKYGPPCPSCPAPEFLGGPSVFLFPPKPKDTLMISRTPEVTCVVVDVSQEDPEVQFNWYVDGVEVHNAKTKPREEQFNSTYRVVSVLTVLHQDWLSGKEYKCKVSSKGLPSSIEKTISNATGQPREPQVYTLPPSQEEMTKNQVSLTCLVKGFYPSDIAVEWESNGQPENNYKTTPPVLDSDGSFFLYSRLTVDKSSWQEGNVFSCSVMHEALHNHYTQKSLSLSLGKIEGRMDQVSHRYPRIQSIKVQFTEYKKEKGFILTSQKEDEIMKVQNNSVIINCDGFYLISLKGYFSQEVNISLHYQKDEEPLFQLKKVRSVNSLMVASLTYKDKVYLNVTTDNTSLDDFHVNGGELILIHQNPGEFCVL
B3: recombinant murine CD40 protein (receptor, UniProt P27512 24-193, looked up)
chain: VTCSDKQYLHDGQCCDLCQPGSRLTSHCTALEKTQCHPCDSGEFSAQWNREIRCHQHRHCEPNQGLRVKKEGTAESDTVCTCKEGQHCTSKDCEACAQHTPCIPGFGVMEMATETTDTVCHPCPVGFFSNQSSLFEKCYPWTSCEDKNLEVLQKGTSQTNVICGLKSRMR
notes: also called mCD40
B4: murine CD172a(SIRPα)-Fc-CD40L chimeric protein (Fc fusion, UniProt P97797 32-373, looked up)
chain: KELKVTQPEKSVSVAAGDSTVLNCTLTSLLPVGPIRWYRGVGPSRLLIYSFAGEYVPRIRNVSDTTKRNNMDFSIRISNVTPADAGIYYCVKFQKGSSEPDTEIQSGGGTEVYVLAKPSPPEVSGPADRGIPDQKVNFTCKSHGFSPRNITLKWFKDGQELHPLETTVNPSGKNVSYNISSTVRVVLNSMDVNSKVICEVAHITLDRSPLRGIANLSNFIRVSPTVKVTQQSPTSMNQVNLTCRAERFYPEDLQLIWLENGNVSRNDTPKNLTKNTDGTYNYTSLFLVNSSAHREDVVFTCQVKHDQQPAITRNHTVLGFAHSSDQGSMQTFPDNNATHNWNHRRLDKVEEEVNLHEDFVFIKKLKRCNKGEGSLSLLNCEEMRRQFEDLVKDITLNKEEKKENSFEMQRGDEDPQIAAHVVSEANSNAASVLQWAKKGYYTMKSNLVMLENGKQLTVKREGLYYVYTQVTFCSNREPSSQRPFIVGLWLKPSSGSERILLKAANTHSSSQLCEQQSVHLGGVFELQAGASVFVNVTEASQVIHRVGFSSFGLLKL
notes: extracellular domain; also called mCD172a(SIRPα)-Fc-CD40L; not shown: Fc linker of the murine construct is not specified
B5: OX40-His (Example 11) (receptor, not shown: small tags and cut ends)
chain: VTARRLNCVKHTYPSGHKCCRECQPGHGMVSRCDHTRDTLCHPCETGFYNEAVNYDTCKQCTQCNHRSGSELKQNCTPTQDTVCRCRPGTQPRQDSGYKLGVDCVPCPPGHFSPGNNQACKPWTNCTLSGKQTRHPASDSLDAVCEDRSLLATLLWETQRPTFRPTTVQSTTVWPRTSELPSPPTLVTPEGP

One assay deals with T1, FcRn-His (Example 11) (Mus musculus (Mouse), UniProt Q61559 22-297; P01887 21-119).
T1 construct: copies: 1 + 1
T1 sequence (alpha): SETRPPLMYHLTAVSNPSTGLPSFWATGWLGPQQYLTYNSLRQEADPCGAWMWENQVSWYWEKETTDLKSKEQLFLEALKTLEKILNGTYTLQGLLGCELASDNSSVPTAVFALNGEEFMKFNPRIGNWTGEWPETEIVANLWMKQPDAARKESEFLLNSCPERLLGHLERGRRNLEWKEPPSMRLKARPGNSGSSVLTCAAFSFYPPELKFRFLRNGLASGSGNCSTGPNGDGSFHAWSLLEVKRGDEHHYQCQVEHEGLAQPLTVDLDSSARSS
T1 sequence (beta): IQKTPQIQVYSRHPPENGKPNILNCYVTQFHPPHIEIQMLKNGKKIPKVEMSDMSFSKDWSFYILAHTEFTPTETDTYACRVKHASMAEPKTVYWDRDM
As to the kind of experiment: SPR, BioRad ProteOn XPR 360, His-tagged target on chip. (In general: In SPR one partner is held on a chip, and binding of the other changes the refractive index at the surface.)

Assay [1] has as its target T2, OX40 on HeLa cells (HeLa-OX40) (Homo sapiens (Human), UniProt P43489 29-277).
T2 sequence: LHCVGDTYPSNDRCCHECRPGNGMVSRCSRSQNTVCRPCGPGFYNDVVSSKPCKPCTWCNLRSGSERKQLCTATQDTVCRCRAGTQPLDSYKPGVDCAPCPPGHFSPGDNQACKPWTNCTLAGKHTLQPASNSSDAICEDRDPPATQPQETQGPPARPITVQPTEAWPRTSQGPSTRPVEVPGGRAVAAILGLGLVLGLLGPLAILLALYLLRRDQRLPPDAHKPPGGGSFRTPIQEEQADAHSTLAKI
As to the kind of experiment: FACS on HeLa-OX40 cells.

Assay [2] addresses PD-L1 on CHO cells (CHO-PD-L1) (Homo sapiens (Human), UniProt Q9NZQ7 19-290). As to the kind of experiment: FACS on CHO-PD-L1 cells.
Assay [3] deals with B4. The assay can be described thus: SPR.
Assay [4] concerns the target T3, murine CD40 on CHOK1 cells (murine, UniProt P27512 20-289).
T3 construct: whole, on cells; also called mCD40; CHOK1/mCD40
The assay can be described thus: flow cytometry on CHOK1/mCD40 cells. An excerpt: Cells were collected, washed, and stained with antibodies for the detection of the chimeric protein binding by flow cytometry.

Assay [5] addresses B1. As to the kind of experiment: SPR, BioRad ProteOn XPR 360, His-tagged target on chip.

T3 sequence (P27512 20-289): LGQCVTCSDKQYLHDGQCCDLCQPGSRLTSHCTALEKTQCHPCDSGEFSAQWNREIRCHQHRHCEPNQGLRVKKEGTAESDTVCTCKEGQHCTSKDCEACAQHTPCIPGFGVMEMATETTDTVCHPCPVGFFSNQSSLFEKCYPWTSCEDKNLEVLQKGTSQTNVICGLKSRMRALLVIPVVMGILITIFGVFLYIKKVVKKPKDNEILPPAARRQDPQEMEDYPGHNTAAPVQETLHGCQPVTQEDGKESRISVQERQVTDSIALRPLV
PD-L1 on CHO cells (CHO-PD-L1), sequence (Q9NZQ7 19-290 limits assumed, form in doubt): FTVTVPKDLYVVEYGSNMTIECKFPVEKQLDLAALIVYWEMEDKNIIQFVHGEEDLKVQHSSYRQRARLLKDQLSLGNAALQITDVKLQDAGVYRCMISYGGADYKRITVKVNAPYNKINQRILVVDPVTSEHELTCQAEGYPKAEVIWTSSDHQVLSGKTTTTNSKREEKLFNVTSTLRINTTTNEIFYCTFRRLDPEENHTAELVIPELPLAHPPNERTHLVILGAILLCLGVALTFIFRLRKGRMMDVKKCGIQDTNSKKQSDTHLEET

In the assay with FcRn-His (Example 11), B1 yielded an equilibrium dissociation constant (Kd) of 55.6 nM, a koff of 0.00262 s⁻¹ and a kon of 47200 M⁻¹ s⁻¹.
B2: the EC50 in assay [1] came to 6 nM; in assay [2], 27 nM.
Consider B3, for which, in assay [3], the Kd amounted to 0.756 nM.
B4 gave a 50% effective concentration (EC50) in assay [4] of 20.2 nM.
The molecule B5 came in with a Kd in assay [5] of 9.62 nM.

Broadly, the Kd is the equilibrium constant for the complex coming apart. High values mean a looser complex, low ones a tighter complex. The term koff denotes a measure of how fast the partners let go of each other. Read a low koff as a long-lived complex. As usually defined, the kon is the second-order rate constant of association. For orientation: EC50 means the concentration at which the effect is half-maximal.
